# Laboratory results taken from patent US10494415B2, “Insulin-like growth factor 2 (IGF2) binding agents” (Cancer Research Technology Limited, priority 2015, dated 2019).
# B1: Fc-domain 11^AB5-RHH: Fc-fusion of domain 11^AB5-RHH (IGF2-TRAP); IgG2 Fc form purified from CHO cells used for xenografts (protein)
# chain: NEHDDCQVTNPSTGHLFDLSSLSGRAGFTAAYAKGWGVYMSICGENENCPPGVGACFGRTRISVGKANKRLRYVDQVLQLVYKDGSHCPSKHGLSYKSVISFVCRPEAGPTNRPMLISLDKQTCTLFFSWHTPLACEQAT
# modifications: left off: a dimerising Fc or GST
# notes: Fc-fusion of domain 11^AB5-RHH (IGF2-TRAP); IgG2 Fc form purified from CHO cells used for xenografts
# What was measured:
# [1] = test system: IGF2^1-67-induced hypoglycaemia; experiment: IGF2-induced hypoglycaemia mouse model; type: in vivo; conditions: co-injected
# From the text: All animal experiments were approved by the animal use ethical committee of Oxford University and fully complied with UK Home Office guidelines (PPL 30/2695). Wild-type C57BL/6J and 129S2 mice were used throughout. Mice were anaesthetised using a rising concentration of isoflurane in oxygenated air and maintained using 2% isoflurane with 2 L min^−1 oxygen. Blood glucose measurements were taken using an Advantage diabetic glucose meter (Roche Diagnostics, Burgess Hill, UK). In order to test the direct inhibition of IGF2-induced hypoglycaemia by Fc-domain 11^AB5, blood glucose levels were allowed to normalise for 30 min prior to taking a baseline blood glucose reading, then either 1 mg kg^−1 IGF2 only (R&D systems), […], Fc-domain 11^RHH, or Fc-domain 11^I1572A ([…]) was injected. Blood glucose measurements were taken every 10 min for the following hour. For the Fc-domain 11^AB5 mouse preloading experiment, 11.7 mg kg^−1 Fc-domain 11^AB5 or PBS, as negative control, was injected immediately after induction of anaesthesia, 30 mins later a baseline blood glucose reading was taken and 1 mg kg^−1 IGF2 ([…]) was injected, readings were then taken every 10 min for the following hour. For the mouse IGF2 preloading experiment, 1 mg kg^−1 IGF2 was injected immediately after induction of anaesthesia, 30 min later a baseline blood glucose reading was taken and either 11.7 mg kg^−1 Fc-domain 11^AB5 ([…]) or PBS was injected, readings were then taken every 10 min for the following hour.
# [2] = test system: SKNMC-IGF2^1-67 xenografts; experiment: IGF2 dependent human cancer cell xenografts; type: in vivo, mouse; conditions: for Xenograft growth: CD-1 nude mice, 40 mg kg-1 per week by osmotic mini-pump
# From the text: (§1) IGF2 sensitive autocrine cell line SKNMC-IGF2^67 was generated from the Ewing sarcoma cell line SKNMC by retroviral infection with constructs containing IRES-luciferase. Autocrine growth and signalling function of the SKNMC line, including inhibition by IGF2-TRAP, was confirmed in culture using an MTS reagent (Cell Titer 96 Aqueous One Solution cell proliferation assay, Promega). For xenografts, approximately 5×10^6 SKNMC-IGF2^67 cells harvested during the growth phase of sub-confluent cell cultures were then mixed with matrigel (50:50 v/v, 100 μl/mouse) and injected (sub-cutaneous) into CD-1® (Crl:NU-1 Foxn1nu) female mice, 24 hours after establishing ALZET® mini-pump placement delivering a single concentration 40 mg kg-1 per week either IGF2-TRAP or PBS vehicle control. Tumour growth was monitored with both caliper measurements and bioluminescence. The latter was performed with a Bruker Xtreme 2D optical system 15 minutes (10 second exposure) following luciferin injection (100 μl per 20 g body weight). Tumours were excised at 28 days or when size was >1000 mm3. Fixation in formalin, embedding in paraffin and Hematoxylin and Eosin (H&E) staining was done using standard protocols. Apoptotic area was quantified using automated image analysis of brightfield images in ImageJ, applying H AEC color deconvolution filter and automated thresholding. Serum was also collected at the time of culling.
# SKNMC-IGF2^1-67 cells = experiment: Growth/viability of IGF2-autocrine SKNMC cells in culture (MTS); type: cell-based, human
# From the text: as §1, with “Serum was also collected at the time of culling.” left out
molecule,measurement,setting,value
B1,IGF2-induced hypoglycaemia (blood glucose),[1]; molar ratio 1:0.23,more efficient IGF2 antagonist than Fc-domain 11^AB5
same,IGF2-induced hypoglycaemia (blood glucose),"[1]; molar ratio 1:0.23, listed as domain 11^AB5-RHH",significantly counteracted IGF2-induced hypoglycaemia
same,IGF2-induced hypoglycaemia (blood glucose),[1]; molar ratio 1:0.5,abrogation
same,Xenograft growth,[2]; listed as Fc-domain 11AB5-RHH,Reduced xenograft growth rates
same,Xenograft growth,[2]; listed as IGF2-TRAP,reduces IGF2 dependent xenograft growth
same,"Total serum IGF1, Growth Hormone or IGFBP levels",[2]; Day 28,without alteration
same,Serum IGF2,"[2]; Day 28, listed as Fc-domain 11AB5-RHH",less evident
same,Serum IGF2,"[2]; Day 28, listed as IGF2-TRAP",reduced levels of serum IGF2
same,Growth of SKNMC cells expressing constitutive IGF2^1-67 in culture,SKNMC-IGF2^1-67 cells; listed as Fc-domain 11AB5-RHH,inhibited
same,Growth of SKNMC cells expressing constitutive IGF2^1-67 in culture,SKNMC-IGF2^1-67 cells; listed as IGF2-TRAP,decreases the cell viability
